The target of this assay is Full-length human AURKA^T288V (human, UniProt O14965 1-403, T288V). The assay can be described thus: FP; competition with FITC-Tpx2 1-43.
Sequence of Full-length human AURKA^T288V (O14965 other isoform, or with tags, fused parts or gaps T288V | T288V): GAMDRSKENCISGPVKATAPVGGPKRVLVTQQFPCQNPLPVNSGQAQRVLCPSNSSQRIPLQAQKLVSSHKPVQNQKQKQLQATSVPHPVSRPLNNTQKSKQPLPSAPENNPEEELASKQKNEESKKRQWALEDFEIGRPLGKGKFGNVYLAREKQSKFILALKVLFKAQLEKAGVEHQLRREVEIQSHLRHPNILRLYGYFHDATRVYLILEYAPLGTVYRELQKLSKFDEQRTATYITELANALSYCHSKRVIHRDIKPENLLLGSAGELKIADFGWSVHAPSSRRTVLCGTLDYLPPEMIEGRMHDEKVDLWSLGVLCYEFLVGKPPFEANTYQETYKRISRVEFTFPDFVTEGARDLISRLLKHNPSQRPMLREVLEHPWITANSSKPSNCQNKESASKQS

B1: pBora^18–120 (domain or fragment)
chain: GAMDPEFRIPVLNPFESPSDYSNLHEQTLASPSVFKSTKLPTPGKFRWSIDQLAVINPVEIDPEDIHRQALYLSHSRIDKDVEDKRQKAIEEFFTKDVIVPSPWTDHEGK
modifications: phosphorylated (kinase and sites not stated for the fluorescence polarisation assay)
B1 registered a 50% inhibitory concentration (IC50) of 680 nM.

For orientation: IC50 means the point on the concentration scale where inhibition reaches its midpoint. A higher IC50 goes with weaker potency.

These data come from article PMC7997955 (2021).
